Measurements published in article PMC10397247.
One block for each binder: values may come before it.

Tests used:
Core_ININ-es_KEEE = biological target: T1, Core_ININ-es_KEEE; assay: two-hybrid library CCmax; settings: mean of both orientations;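 also: natural log of median RNA to DNA barcode read ratio; higher means stronger binding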
T1 chain: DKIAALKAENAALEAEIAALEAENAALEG

4H1081-bA = biological target: T2, 4H1081-bA; assay: two-hybrid library CCNG1; settings: mean of both orientations;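 also: natural log of median RNA to DNA barcode read ratio; higher means stronger binding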
T2 chain: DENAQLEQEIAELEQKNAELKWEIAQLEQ

4H112-bA = biological target: T3, 4H112-bA; assay: two-hybrid library CCNG1;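 also: natural log of median RNA to DNA barcode read ratio; higher means stronger binding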
T3 chain: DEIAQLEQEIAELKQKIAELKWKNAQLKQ

4H1158-bA = biological target: T4, 4H1158-bA; assay: two-hybrid library CCNG1;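 also: natural log of median RNA to DNA barcode read ratio; higher means stronger binding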
T4 chain: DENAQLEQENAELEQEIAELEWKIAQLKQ

4H118-bA = biological target: T5, 4H118-bA; assay: two-hybrid library CCNG1;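 also: natural log of median RNA to DNA barcode read ratio; higher means stronger binding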
T5 chain: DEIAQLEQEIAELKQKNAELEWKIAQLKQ

4H1348-bA = biological target: T6, 4H1348-bA; assay: two-hybrid library CCNG1;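 also: natural log of median RNA to DNA barcode read ratio; higher means stronger binding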
T6 chain: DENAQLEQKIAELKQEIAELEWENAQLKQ

4H1373-bA = biological target: T7, 4H1373-bA; assay: two-hybrid library CCNG1
T7 chain: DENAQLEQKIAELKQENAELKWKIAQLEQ

4H1544-bA = biological target: T8, 4H1544-bA; assay: two-hybrid library CCNG1
T8 chain: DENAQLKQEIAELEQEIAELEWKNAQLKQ

4H170-bA = biological target: T9, 4H170-bA; assay: two-hybrid library CCNG1
T9 chain: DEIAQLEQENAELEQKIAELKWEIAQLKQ

4H1710-bA = biological target: T10, 4H1710-bA; assay: two-hybrid library CCNG1
T10 chain: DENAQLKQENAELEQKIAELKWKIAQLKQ

4H1831-bA = biological target: T11, 4H1831-bA; assay: two-hybrid library CCNG1
T11 chain: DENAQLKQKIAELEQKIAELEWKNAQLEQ

4H1899-bA = biological target: T12, 4H1899-bA; assay: two-hybrid library CCNG1
T12 chain: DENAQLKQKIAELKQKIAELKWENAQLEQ

4H1985-bA = biological target: T13, 4H1985-bA; assay: two-hybrid library CCNG1
T13 chain: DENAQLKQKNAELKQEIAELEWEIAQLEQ

4H2586-bA = biological target: T14, 4H2586-bA; assay: two-hybrid library CCNG1
T14 chain: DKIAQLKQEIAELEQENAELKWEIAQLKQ

4H2627-bA = biological target: T15, 4H2627-bA; assay: two-hybrid library CCNG1
T15 chain: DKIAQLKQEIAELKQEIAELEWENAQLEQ

4H2673-bA = biological target: T16, 4H2673-bA; assay: two-hybrid library CCNG1
T16 chain: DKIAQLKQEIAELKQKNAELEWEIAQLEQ

4H2702-bA = biological target: T17, 4H2702-bA; assay: two-hybrid library CCNG1
T17 chain: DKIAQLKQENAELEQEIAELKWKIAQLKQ

4H3010-bA = biological target: T18, 4H3010-bA; assay: two-hybrid library CCNG1
T18 chain: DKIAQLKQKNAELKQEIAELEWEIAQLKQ

4H3112-bA = biological target: T19, 4H3112-bA; assay: two-hybrid library CCNG1
T19 chain: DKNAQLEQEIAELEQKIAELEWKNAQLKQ

4H3162-bA = biological target: T20, 4H3162-bA; assay: two-hybrid library CCNG1
T20 chain: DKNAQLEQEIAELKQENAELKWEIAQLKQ

4H3175-bA = biological target: T21, 4H3175-bA; assay: two-hybrid library CCNG1
T21 chain: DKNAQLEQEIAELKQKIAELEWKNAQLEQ

4H3277-bA = biological target: T22, 4H3277-bA; assay: two-hybrid library CCNG1
T22 chain: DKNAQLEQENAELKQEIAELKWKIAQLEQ

4H3298-bA = biological target: T23, 4H3298-bA; assay: two-hybrid library CCNG1
T23 chain: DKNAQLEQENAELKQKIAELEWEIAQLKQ

4H3427-bA = biological target: T24, 4H3427-bA; assay: two-hybrid library CCNG1
T24 chain: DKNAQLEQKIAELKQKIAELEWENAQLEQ

4H346-bA = biological target: T25, 4H346-bA; assay: two-hybrid library CCNG1
T25 chain: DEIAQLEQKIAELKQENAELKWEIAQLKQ

4H3462-bA = biological target: T26, 4H3462-bA; assay: two-hybrid library CCNG1
T26 chain: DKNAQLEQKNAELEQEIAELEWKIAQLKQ

4H3497-bA = biological target: T27, 4H3497-bA; assay: two-hybrid library CCNG1
T27 chain: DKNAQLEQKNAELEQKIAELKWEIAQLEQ

4H3613-bA = biological target: T28, 4H3613-bA; assay: two-hybrid library CCNG1
T28 chain: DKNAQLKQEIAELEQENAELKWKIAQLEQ

4H3628-bA = biological target: T29, 4H3628-bA; assay: two-hybrid library CCNG1
T29 chain: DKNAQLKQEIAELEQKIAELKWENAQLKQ

4H3926-bA = biological target: T30, 4H3926-bA; assay: two-hybrid library CCNG1; settings: mean of both orientations
T30 chain: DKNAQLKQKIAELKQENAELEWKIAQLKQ

4H4073-bA = biological target: T31, 4H4073-bA; assay: two-hybrid library CCNG1
T31 chain: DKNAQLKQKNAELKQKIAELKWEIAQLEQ

4H457-bA = biological target: T32, 4H457-bA; assay: two-hybrid library CCNG1
T32 chain: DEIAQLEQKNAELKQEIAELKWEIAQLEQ

4H575-bA = biological target: T33, 4H575-bA; assay: two-hybrid library CCNG1
T33 chain: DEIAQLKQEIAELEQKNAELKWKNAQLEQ

4H591-bA = biological target: T34, 4H591-bA; assay: two-hybrid library CCNG1
T34 chain: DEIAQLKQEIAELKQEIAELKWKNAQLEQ

4H626-bA = biological target: T35, 4H626-bA; assay: two-hybrid library CCNG1
T35 chain: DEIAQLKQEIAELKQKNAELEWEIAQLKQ

4H683-bA = biological target: T36, 4H683-bA; assay: two-hybrid library CCNG1
T36 chain: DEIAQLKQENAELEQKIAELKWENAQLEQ

4H754-bA = biological target: T37, 4H754-bA; assay: two-hybrid library CCNG1
T37 chain: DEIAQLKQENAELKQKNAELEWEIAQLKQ

4H780-bA = biological target: T38, 4H780-bA; assay: two-hybrid library CCNG1
T38 chain: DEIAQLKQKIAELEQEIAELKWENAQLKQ

4H797-bA = biological target: T39, 4H797-bA; assay: two-hybrid library CCNG1
T39 chain: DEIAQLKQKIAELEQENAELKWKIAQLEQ

4H855-bA = biological target: T40, 4H855-bA; assay: two-hybrid library CCNG1
T40 chain: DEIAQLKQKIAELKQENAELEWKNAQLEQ

4H906-bA = biological target: T41, 4H906-bA; assay: two-hybrid library CCNG1
T41 chain: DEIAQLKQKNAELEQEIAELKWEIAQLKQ

4H918-bA = biological target: T42, 4H918-bA; assay: two-hybrid library CCNG1
T42 chain: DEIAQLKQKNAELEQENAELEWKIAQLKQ

4H953-bA = biological target: T43, 4H953-bA; assay: two-hybrid library CCNG1
T43 chain: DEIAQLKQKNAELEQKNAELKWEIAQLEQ

4H968-bA = biological target: T44, 4H968-bA; assay: two-hybrid library CCNG1
T44 chain: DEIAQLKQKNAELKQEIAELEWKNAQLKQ

O6 = biological target: T45, O6; assay: two-hybrid library CCNG1
T45 chain: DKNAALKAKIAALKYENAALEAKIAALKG

P8SHb = biological target: T46, P8SHb; assay: two-hybrid library CCNG1
T46 chain: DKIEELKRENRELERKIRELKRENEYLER

interaction score (Core_ININ-es_KEEE): 2.37
Binder: DEIAALEAKNAALKAKIAALKAKNAALKG [Core_ININ-es_EKKK]

interaction score (4H1081-bA): -1.09
interaction score (4H112-bA): -0.18
interaction score (4H1158-bA): -1.28
interaction score (4H118-bA): -0.618
interaction score (4H1348-bA): -0.834
interaction score (4H1373-bA): -0.306
interaction score (4H1544-bA): -0.272
interaction score (4H170-bA): -0.98
interaction score (4H1710-bA): -1.02
interaction score (4H1831-bA): -0.839
interaction score (4H1899-bA): -0.763
interaction score (4H1985-bA): -0.96
interaction score (4H2586-bA): -1
interaction score (4H2627-bA): -0.693
interaction score (4H2673-bA): -0.717
interaction score (4H2702-bA): 0.457
interaction score (4H3010-bA): -0.178
interaction score (4H3112-bA): -0.897
interaction score (4H3162-bA): -0.581
interaction score (4H3175-bA): -1.47
interaction score (4H3277-bA): -0.575
interaction score (4H3298-bA): -0.916
interaction score (4H3427-bA): -0.645
interaction score (4H346-bA): -0.753
interaction score (4H3462-bA): -0.859
interaction score (4H3497-bA): -1.1
interaction score (4H3613-bA): -0.495
interaction score (4H3628-bA): -1.07
interaction score (4H3926-bA): 2.57
interaction score (4H4073-bA): -0.497
interaction score (4H457-bA): -0.799
interaction score (4H575-bA): -1.21
interaction score (4H591-bA): -0.855
interaction score (4H626-bA): -0.689
interaction score (4H683-bA): -0.217
interaction score (4H754-bA): -0.461
interaction score (4H780-bA): -0.865
interaction score (4H797-bA): -1.17
interaction score (4H855-bA): -0.154
interaction score (4H906-bA): -0.875
interaction score (4H918-bA): -0.671
interaction score (4H953-bA): -1.23
interaction score (4H968-bA): -1.8
interaction score (O6): 1.04
interaction score (P8SHb): -1.25
Binder: DENAQLEQEIAELEQKNAELKWEIAQLEQ [4H1081-bA]
